The results in this text go back to publication PMC3688963, “Biochemical Characterization of Hypothetical Proteins from Helicobacter pylori” (PLoS ONE, 2013).

The subject of the series is CC(=O)Oc1ccc([N+](=O)[O-])cc1. Briefly: purified protein. To be noted: 100 mM sodium acetate pH 6.0, 30°C.

With HP0310 (Helicobacter pylori 26695), the Km amounted to 180 ± 50 µM, the Vmax is 37400 µM/min, the kcat was 20.1 ± 0.917 s⁻¹ and the kcat/Km is 112000 M⁻¹ s⁻¹.
